In article PMC11187563, “The importance of tyrosines in multimers of cyclic RGD nonapeptides: towards αvβ6-integrin targeted radiotherapeutics” (RSC Medicinal Chemistry, 2024):
Read-outs that look alike come from different tables or passages of the source.

What was measured:
[1] = Ex vivo biodistribution of 177Lu-labeled peptide tetramers in H2009 xenografted SCID mice; conditions: CB17 SCID, mouse, iv, total radioactivity, H2009 bearing SCID mice; for tissue uptake at 1.5 h / tissue to tissue ratio at 1.5 h: 43 pmol, 90 min p.i.; for tissue uptake at 72 h / tissue to tissue ratio at 72 h: 64 pmol, 3 d p.i.
Method: (§1) The biodistribution of the ^177Lu-labeled peptide conjugates was investigated in severe combined immunodeficiency (SCID) mice bearing subcutaneous xenografts of the αvβ6-integrin expressing human lung adenocarcinoma cell line H2009 on their right shoulders. Two representative time points after i.v. administration (p.i.) were evaluated.
(§2) Analytical HPLC was performed on a Shimadzu (Kyoto, Japan) Prominence HPLC system equipped with either a Dr. Maisch ReproSil Pur C18 AQ 150 × 4.6 mm, 5 μm, 120 Å (AC1) or a Phenomenex Kinetex C18 150 × 4.6 mm 5 μm column (AC2). Semipreparative HPLC was performed on a Shimadzu HPLC system equipped with either a Dr. Maisch ReproSil Pur C18 AQ 250 × 10 mm, 5 μm, 120 Å column with 5 mL min^−1 flow (PC1) or a Dr. Maisch ReproSil Pur C18 150 × 30 mm, 5 μm, 120 Å column with 20 mL min^−1 flow (PC2). Solvents for both systems were water (A) and acetonitrile (B) each supplemented with 0.1% (vol) trifluoroacetic acid (TFA). ESI-MS spectra (positive mode) were recorded on a Shimadzu LC-MS 2020 single quadrupol mass spectrometer. Solvents for MS applications were water (A) and acetonitrile (B) each supplemented with 0.1% (vol) formic acid. The other experimental procedures (determination of log D7.4, cultivation of H2009 human lung adenocarcinoma cells, generation of tumor xenografts in CB17 SCID mice, and biodistribution) were performed as described before.[28] All animal experiments have been carried out according to applicable law and institutional guidelines of Technical University of Munich, and were approved by the responsible local authority (Regierung von Oberbayern). The H2009 cells were regularly authenticated and tested for mycoplasma contamination. DOTPI-tetraazide,[43]FF (previously termed AvB6),[29]FY,[34] and YY (also referred to as Tyr2-alkyne)[36] were synthesized as described previously.

[2] = system: αvβ6-integrin expressing human lung adenocarcinoma cell line H2009 xenografts; assay: as above; conditions: H2009 bearing SCID mice
Method: as §1, §2

[3] = H2009 tumor, read-out: Tumor H2009 %IA/g
[4] = adrenals, read-out: Adrenals %IA/g
[5] = heart (myocard), read-out: Heart (myocard) %IA/g
[6] = kidneys, read-out: Kidneys %IA/g
[7] = large intestine (empty), read-out: Large intestine (empty) %IA/g
[8] = pancreas, read-out: Pancreas %IA/g
[9] = small intestine (empty), read-out: Small intestine (empty) %IA/g
[10] = stomach (empty), read-out: Stomach (empty) %IA/g
[11] = tumor/blood, read-out: tumor/organ ratio, Blood
[12] = tumor/heart (myocard), read-out: tumor/organ ratio, Heart (myocard)
[13] = tumor/liver, read-out: tumor/organ ratio, Liver
[14] = tumor/lung, read-out: tumor/organ ratio, Lung
[15] = tumor/pancreas, read-out: tumor/organ ratio, Pancreas
[16] = tumor/spleen, read-out: tumor/organ ratio, Spleen

Which tissue uptake at 1.5 h [1, 3] does the source give for CC(C)C[C@@H]1NC(=O)[C@H](CC(=O)O)NC(=O)CNC(=O)[C@H](CCCNC(=N)N)NC(=O)[C@H](Cc2ccccc2)NC(=O)[C@H](CCCCNC(=O)CCc2cn(CCCNC(=O)CCP(=O)(O)CN3CCN(CP(=O)(O)CCC(=O)NCCCn4cc(CCC(=O)NCCCC[C@H]5C(=O)N[C@@H](Cc6ccccc6)C(=O)N[C@@H](CCCNC(=N)N)C(=O)NCC(=O)N[C@@H](CC(=O)O)C(=O)N[C@@H](CC(C)C)C(=O)N[C@@H](C)C(=O)N[C@@H](Cc6ccc(O)cc6)C(=O)N6CCC[C@@H]6C(=O)N5C)nn4)CCN(CP(=O)(O)CCC(=O)NCCCn4cc(CCC(=O)NCCCC[C@H]5C(=O)N[C@@H](Cc6ccccc6)C(=O)N[C@@H](CCCNC(=N)N)C(=O)NCC(=O)N[C@@H](CC(=O)O)C(=O)N[C@@H](CC(C)C)C(=O)N[C@@H](C)C(=O)N[C@@H](Cc6ccc(O)cc6)C(=O)N6CCC[C@@H]6C(=O)N5C)nn4)CCN(CP(=O)(O)CCC(=O)NCCCn4cc(CCC(=O)NCCCC[C@H]5C(=O)N[C@@H](Cc6ccccc6)C(=O)N[C@@H](CCCNC(=N)N)C(=O)NCC(=O)N[C@@H](CC(=O)O)C(=O)N[C@@H](CC(C)C)C(=O)N[C@@H](C)C(=O)N[C@@H](Cc6ccc(O)cc6)C(=O)N6CCC[C@@H]6C(=O)N5C)nn4)CC3)nn2)N(C)C(=O)[C@H]2CCCN2C(=O)[C@H](Cc2ccc(O)cc2)NC(=O)[C@H](C)NC1=O [Compound 177Lu-Y4, metal not drawn] here?
The tissue uptake at 1.5 h was 6.91 %ID/g.

And the tissue uptake at 72 h [1, 3]?
The tissue uptake at 72 h was 2.07 %ID/g.

What about the tissue uptake at 1.5 h [1, 4] of the same molecule?
Its tissue uptake at 1.5 h is 0.52 %ID/g.

What about the tissue uptake at 72 h [1, 4] of the same molecule?
Its tissue uptake at 72 h is 0.9 %ID/g.

What about the tissue uptake at 1.5 h ([1]; blood, read-out: Blood %IA/g) of the same molecule?
The tissue uptake at 1.5 h was 1.33 %ID/g.

What about the tissue uptake at 72 h ([1]; blood, read-out: Blood %IA/g) of the same molecule?
The tissue uptake at 72 h was 0.02 %ID/g.

And the tissue uptake at 1.5 h ([1]; bone, read-out: Bone %IA/g)?
Its tissue uptake at 1.5 h is 1.84 %ID/g.

What about the tissue uptake at 72 h ([1]; bone, read-out: Bone %IA/g) of the same molecule?
Its tissue uptake at 72 h is 0.55 %ID/g.

What about the tissue uptake at 1.5 h [1, 5] of the same molecule?
The tissue uptake at 1.5 h was 0.74 %ID/g.

What about the tissue uptake at 72 h [1, 5] of the same molecule?
The tissue uptake at 72 h was 0.27 %ID/g.

And the tissue uptake at 1.5 h [1, 6]?
Its tissue uptake at 1.5 h is 219 %ID/g.

And the tissue uptake at 72 h [1, 6]?
The tissue uptake at 72 h was 203 %ID/g.

And the tissue uptake at 1.5 h [1, 7]?
Its tissue uptake at 1.5 h is 6.99 %ID/g.

What about the tissue uptake at 72 h [1, 7] of the same molecule?
Its tissue uptake at 72 h is 1.33 %ID/g.

What about the tissue uptake at 1.5 h ([1]; liver, read-out: Liver %IA/g) of the same molecule?
The tissue uptake at 1.5 h was 1.06 %ID/g.

And the tissue uptake at 72 h ([1]; liver, read-out: Liver %IA/g)?
Its tissue uptake at 72 h is 0.88 %ID/g.

What about the tissue uptake at 1.5 h ([1]; lung, read-out: Lung %IA/g) of the same molecule?
Its tissue uptake at 1.5 h is 6.74 %ID/g.

And the tissue uptake at 72 h ([1]; lung, read-out: Lung %IA/g)?
The tissue uptake at 72 h was 1.21 %ID/g.

What about the tissue uptake at 1.5 h ([1]; muscle, read-out: Muscle %IA/g) of the same molecule?
Its tissue uptake at 1.5 h is 1 %ID/g.

And the tissue uptake at 72 h ([1]; muscle, read-out: Muscle %IA/g)?
The tissue uptake at 72 h was 0.28 %ID/g.

And the tissue uptake at 1.5 h [1, 8]?
Its tissue uptake at 1.5 h is 0.37 %ID/g.

And the tissue uptake at 72 h [1, 8]?
Its tissue uptake at 72 h is 0.19 %ID/g.

And the tissue uptake at 1.5 h [1, 9]?
The tissue uptake at 1.5 h was 3.05 %ID/g.

What about the tissue uptake at 72 h [1, 9] of the same molecule?
The tissue uptake at 72 h was 0.26 %ID/g.

What about the tissue uptake at 1.5 h ([1]; spleen, read-out: Spleen %IA/g) of the same molecule?
The tissue uptake at 1.5 h was 4.71 %ID/g.

What about the tissue uptake at 72 h ([1]; spleen, read-out: Spleen %IA/g) of the same molecule?
The tissue uptake at 72 h was 1.31 %ID/g.

And the tissue uptake at 1.5 h [1, 10]?
Its tissue uptake at 1.5 h is 10.7 %ID/g.

What about the tissue uptake at 72 h [1, 10] of the same molecule?
The tissue uptake at 72 h was 3.88 %ID/g.

And the tissue to tissue ratio at 72 h ([1]; tumor / adrenals, read-out: tumor/organ ratio, Adrenals)?
The tissue to tissue ratio at 72 h was 4.1.

And the tissue to tissue ratio at 72 h ([1]; tumor / bone, read-out: tumor/organ ratio, Bone)?
Its tissue to tissue ratio at 72 h is 3.8.

And the tissue to tissue ratio at 72 h ([1]; tumor / large intestine (empty), read-out: tumor/organ ratio, Large intestine (empty))?
The tissue to tissue ratio at 72 h was 1.6.

And the tissue to tissue ratio at 72 h ([1]; tumor / muscle, read-out: tumor/organ ratio, Muscle)?
Its tissue to tissue ratio at 72 h is 9.1.

And the tissue to tissue ratio at 72 h ([1]; tumor / small intestine (empty), read-out: tumor/organ ratio, Small intestine (empty))?
Its tissue to tissue ratio at 72 h is 8.2.

What about the tissue to tissue ratio at 72 h ([1]; tumor / stomach (empty), read-out: tumor/organ ratio, Stomach (empty)) of the same molecule?
Its tissue to tissue ratio at 72 h is 0.6.

And the tissue to tissue ratio at 1.5 h ([1]; tumor/adrenals, read-out: tumor/organ ratio, Adrenals)?
The tissue to tissue ratio at 1.5 h was 13.9.

And the tissue to tissue ratio at 1.5 h [1, 11]?
Its tissue to tissue ratio at 1.5 h is 5.2.

And the tissue to tissue ratio at 72 h [1, 11]?
Its tissue to tissue ratio at 72 h is 108.

What about the tissue to tissue ratio at 1.5 h ([1]; tumor/bone, read-out: tumor/organ ratio, Bone) of the same molecule?
The tissue to tissue ratio at 1.5 h was 3.8.

What about the tissue to tissue ratio at 1.5 h [1, 12] of the same molecule?
The tissue to tissue ratio at 1.5 h was 9.6.

And the tissue to tissue ratio at 72 h [1, 12]?
The tissue to tissue ratio at 72 h was 8.2.

And the tissue to tissue ratio at 1.5 h ([1]; tumor/large intestine (empty), read-out: tumor/organ ratio, Large intestine (empty))?
The tissue to tissue ratio at 1.5 h was 1.

And the tissue to tissue ratio at 1.5 h [1, 13]?
The tissue to tissue ratio at 1.5 h was 6.6.

What about the tissue to tissue ratio at 72 h [1, 13] of the same molecule?
Its tissue to tissue ratio at 72 h is 2.6.

What about the tissue to tissue ratio at 1.5 h [1, 14] of the same molecule?
The tissue to tissue ratio at 1.5 h was 1.

What about the tissue to tissue ratio at 72 h [1, 14] of the same molecule?
The tissue to tissue ratio at 72 h was 1.7.

What about the tissue to tissue ratio at 1.5 h ([1]; tumor/muscle, read-out: tumor/organ ratio, Muscle) of the same molecule?
Its tissue to tissue ratio at 1.5 h is 8.2.

And the tissue to tissue ratio at 1.5 h [1, 15]?
Its tissue to tissue ratio at 1.5 h is 18.6.

What about the tissue to tissue ratio at 72 h [1, 15] of the same molecule?
Its tissue to tissue ratio at 72 h is 11.3.

And the tissue to tissue ratio at 1.5 h ([1]; tumor/small intestine (empty), read-out: tumor/organ ratio, Small intestine (empty))?
The tissue to tissue ratio at 1.5 h was 2.6.

And the tissue to tissue ratio at 1.5 h [1, 16]?
The tissue to tissue ratio at 1.5 h was 1.5.

And the tissue to tissue ratio at 72 h [1, 16]?
Its tissue to tissue ratio at 72 h is 1.7.

And the tissue to tissue ratio at 1.5 h ([1]; tumor/stomach (empty), read-out: tumor/organ ratio, Stomach (empty))?
Its tissue to tissue ratio at 1.5 h is 0.7.

And the “tumor/organ ratio, Kidneys” value ([2]; 90 min p.i.)?
The value was 0.0.

And the “tumor/organ ratio, Kidneys” value ([2]; 3 d p.i.)?
Its value is 0.0.
